In the experiment the target is recombinant full-length human Tau (Tau-441, (2N4R)) (human) (UniProt P10636). The experiment is described as follows: indirect ELISA, plate coated with recombinant full-length human Tau at 3 µg/ml. Background: ELISA stands for enzyme-linked immunosorbent assay.

B1: NI-502.4P3 (antibody, V domains shown)
VH: EVQLVQSGAEVKKPGESLKISCKVSGYDFSKYWIGWVRQMPGKGLEWMGLIYPGDSDTRYSPSLEGQVSISADKSISAAYLQFSSLKASDSAMYYCVRKGYSAYLGGWFDPWGQGTLVTVSS
VL: DIQLTQSPDSLAASLGERVTINCRSSQNIFYNSNNKNFLAWYQQKAGQSPKLLIYWASTRESGVPDRFSGSGSGTDFTLTISGLQAGDVAVYFCQQYFTDAPTFGGGTKVEIK
What is called EC50 is the concentration at which the effect is half-maximal. On to B1, for which the concentration for a half-maximal effect (EC50) turned out to be 15 nM.

Values taken from US20240101654A1.
